Assay [1] concerns the target T1, PEX19 (prey, CIC format) (human) (UniProt P40855).
T1 sequence (looked up): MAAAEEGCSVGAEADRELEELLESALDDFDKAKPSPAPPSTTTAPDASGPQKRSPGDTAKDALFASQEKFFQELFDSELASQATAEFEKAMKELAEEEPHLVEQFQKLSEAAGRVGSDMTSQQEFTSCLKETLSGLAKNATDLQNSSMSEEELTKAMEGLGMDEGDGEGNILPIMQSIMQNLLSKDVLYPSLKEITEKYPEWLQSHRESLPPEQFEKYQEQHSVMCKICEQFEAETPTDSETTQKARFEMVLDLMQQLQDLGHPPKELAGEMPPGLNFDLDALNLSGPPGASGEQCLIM
Kind of assay: SIMPL ELISA, bait-IN/prey-CIC. (ELISA stands for enzyme-linked immunosorbent assay.)

For assay [2], the target named is TCL1A (prey, CIC format) (human) (UniProt P56279). The assay can be described thus: SIMPL ELISA, bait-IN/prey-CIC.
The target in assay [3] is T2, PDPK1 (prey, CIC format) (human) (UniProt O15530).
T2 sequence (looked up): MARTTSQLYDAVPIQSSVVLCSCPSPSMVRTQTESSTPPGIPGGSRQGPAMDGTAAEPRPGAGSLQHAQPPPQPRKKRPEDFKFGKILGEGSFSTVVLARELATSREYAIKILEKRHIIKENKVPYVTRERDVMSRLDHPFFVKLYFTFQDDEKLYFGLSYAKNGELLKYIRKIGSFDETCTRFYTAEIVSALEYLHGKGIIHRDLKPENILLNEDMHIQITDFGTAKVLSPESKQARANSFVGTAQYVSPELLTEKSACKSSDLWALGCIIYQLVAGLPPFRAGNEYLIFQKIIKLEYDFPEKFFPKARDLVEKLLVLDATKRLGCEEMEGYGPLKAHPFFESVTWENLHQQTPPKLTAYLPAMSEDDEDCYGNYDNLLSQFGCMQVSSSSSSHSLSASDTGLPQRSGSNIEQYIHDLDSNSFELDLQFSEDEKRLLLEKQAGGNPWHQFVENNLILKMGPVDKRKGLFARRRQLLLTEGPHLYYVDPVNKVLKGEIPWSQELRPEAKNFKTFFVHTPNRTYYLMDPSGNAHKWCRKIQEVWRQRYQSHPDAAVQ
The assay can be described thus: SIMPL ELISA, bait-IN/prey-CIC.

Assay [4] deals with CYB-1 (C. elegans prey, CIC format) (C. elegans) (UniProt Q10653). The assay can be described thus: SIMPL ELISA, C. elegans lysate, IN/CIC; ratio of spliced signal to total signal.
Assay [5] deals with T3, SOC-2 (C. elegans prey, IC format) (C. elegans) (UniProt Q22875).
T3 sequence (looked up): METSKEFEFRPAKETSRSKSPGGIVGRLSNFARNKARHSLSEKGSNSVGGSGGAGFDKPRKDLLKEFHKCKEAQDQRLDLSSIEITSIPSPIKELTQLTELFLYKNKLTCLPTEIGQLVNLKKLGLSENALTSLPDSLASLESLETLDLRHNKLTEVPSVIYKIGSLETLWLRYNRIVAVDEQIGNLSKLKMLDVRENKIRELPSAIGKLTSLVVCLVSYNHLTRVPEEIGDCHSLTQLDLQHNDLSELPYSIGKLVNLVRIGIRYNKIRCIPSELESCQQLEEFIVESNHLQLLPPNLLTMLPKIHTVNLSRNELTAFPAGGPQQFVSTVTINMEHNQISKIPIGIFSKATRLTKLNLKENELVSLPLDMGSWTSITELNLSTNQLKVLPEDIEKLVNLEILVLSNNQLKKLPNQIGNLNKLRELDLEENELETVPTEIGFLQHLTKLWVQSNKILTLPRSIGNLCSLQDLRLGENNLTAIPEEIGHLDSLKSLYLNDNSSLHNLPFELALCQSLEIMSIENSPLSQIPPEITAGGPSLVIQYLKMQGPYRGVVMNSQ
The assay can be described thus: SIMPL ELISA, C. elegans lysate, IN/IC; ratio of spliced signal to total signal.

In assay [6] the target is T4, SOC-2 (C. elegans prey, CIC format) (C. elegans) (UniProt Q22875).
T4 sequence (looked up): T3 sequence (looked up)
The assay can be described thus: SIMPL ELISA, C. elegans lysate, IN/CIC; ratio of spliced signal to total signal.

Assay [7] has as its target T5, PEX3 (prey, CIC format) (human) (UniProt P56589).
T5 sequence (looked up): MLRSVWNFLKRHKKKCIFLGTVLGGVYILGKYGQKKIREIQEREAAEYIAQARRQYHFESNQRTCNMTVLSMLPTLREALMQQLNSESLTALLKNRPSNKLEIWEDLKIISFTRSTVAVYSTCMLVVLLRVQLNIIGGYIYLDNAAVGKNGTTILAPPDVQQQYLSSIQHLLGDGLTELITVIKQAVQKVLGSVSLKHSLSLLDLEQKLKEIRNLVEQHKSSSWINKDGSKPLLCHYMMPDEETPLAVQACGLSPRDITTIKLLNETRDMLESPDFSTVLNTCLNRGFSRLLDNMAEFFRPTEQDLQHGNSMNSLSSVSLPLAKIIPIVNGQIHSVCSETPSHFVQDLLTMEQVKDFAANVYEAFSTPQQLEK
The assay can be described thus: SIMPL ELISA, bait-IN/prey-CIC.

The target of assay [8] is LMNB1 (prey, CIC format) (human) (UniProt P20700). Kind of assay: SIMPL ELISA, bait-IN/prey-CIC.
For assay [9], the target named is T6, RB1 (prey, CIC format) (human) (UniProt P06400).
T6 sequence (looked up): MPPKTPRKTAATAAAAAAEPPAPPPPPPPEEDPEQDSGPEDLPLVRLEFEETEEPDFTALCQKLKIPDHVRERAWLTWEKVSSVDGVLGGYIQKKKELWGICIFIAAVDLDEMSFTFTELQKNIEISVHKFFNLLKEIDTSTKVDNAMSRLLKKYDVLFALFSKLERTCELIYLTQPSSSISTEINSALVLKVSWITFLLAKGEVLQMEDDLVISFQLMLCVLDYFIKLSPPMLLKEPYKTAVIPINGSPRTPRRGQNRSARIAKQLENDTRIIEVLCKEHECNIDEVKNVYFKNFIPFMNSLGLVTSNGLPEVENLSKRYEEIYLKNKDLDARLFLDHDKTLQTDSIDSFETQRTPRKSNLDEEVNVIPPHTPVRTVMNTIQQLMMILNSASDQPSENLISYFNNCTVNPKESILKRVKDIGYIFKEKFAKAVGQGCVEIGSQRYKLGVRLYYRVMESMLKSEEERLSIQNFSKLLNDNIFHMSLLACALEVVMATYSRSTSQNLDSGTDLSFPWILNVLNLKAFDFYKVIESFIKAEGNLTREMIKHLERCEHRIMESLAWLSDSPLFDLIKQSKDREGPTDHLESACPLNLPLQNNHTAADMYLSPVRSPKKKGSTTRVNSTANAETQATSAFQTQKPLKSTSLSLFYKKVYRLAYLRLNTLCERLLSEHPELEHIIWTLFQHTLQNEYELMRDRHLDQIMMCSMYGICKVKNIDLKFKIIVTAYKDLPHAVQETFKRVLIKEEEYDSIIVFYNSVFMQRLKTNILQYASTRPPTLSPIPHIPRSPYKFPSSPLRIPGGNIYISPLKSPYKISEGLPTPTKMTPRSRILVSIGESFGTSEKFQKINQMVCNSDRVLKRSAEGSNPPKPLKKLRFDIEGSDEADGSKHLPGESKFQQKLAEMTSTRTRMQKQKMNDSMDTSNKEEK
The assay can be described thus: SIMPL ELISA, bait-IN/prey-CIC.

The target of assay [10] is NPP-1 (C. elegans prey, IC format) (C. elegans). The assay can be described thus: SIMPL ELISA, C. elegans lysate, IN/IC; ratio of spliced signal to total signal.
Assay [11] concerns the target HSP90AA1 (prey, CIC format) (human) (UniProt P07900). The assay can be described thus: SIMPL ELISA, bait-IN/prey-CIC.
Assay [12] concerns the target RAD23A (prey, CIC format) (human) (UniProt P54725). The assay can be described thus: SIMPL ELISA, bait-IN/prey-CIC.
Assay [13] has as its target RELA (prey, CIC format) (human) (UniProt Q04206). Kind of assay: SIMPL ELISA, bait-IN/prey-CIC.
The target in assay [14] is RACK1 (prey, CIC format) (human) (UniProt P63244). Kind of assay: SIMPL ELISA, bait-IN/prey-CIC.
The target of assay [15] is EZR (prey, CIC format) (human) (UniProt P15311). Kind of assay: SIMPL ELISA, bait-IN/prey-CIC.
Assay [16] has as its target PTPN11 (prey, CIC format) (human) (UniProt Q06124). The assay can be described thus: SIMPL ELISA, bait-IN/prey-CIC.
Assay [17] concerns the target RAN (prey, CIC format) (human) (UniProt P62826). The assay can be described thus: SIMPL ELISA, bait-IN/prey-CIC.
In assay [18] the target is T7, NCBP2 (prey, CIC format) (human) (UniProt P52298).
T7 sequence (looked up): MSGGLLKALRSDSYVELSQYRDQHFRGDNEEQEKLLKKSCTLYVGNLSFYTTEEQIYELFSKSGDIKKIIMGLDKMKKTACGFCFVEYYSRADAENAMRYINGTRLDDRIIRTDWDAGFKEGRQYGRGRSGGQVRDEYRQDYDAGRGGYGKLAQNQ
Kind of assay: SIMPL ELISA, bait-IN/prey-CIC.

The target in assay [19] is T8, FRS2 (prey, CIC format) (human) (UniProt Q8WU20).
T8 sequence (looked up): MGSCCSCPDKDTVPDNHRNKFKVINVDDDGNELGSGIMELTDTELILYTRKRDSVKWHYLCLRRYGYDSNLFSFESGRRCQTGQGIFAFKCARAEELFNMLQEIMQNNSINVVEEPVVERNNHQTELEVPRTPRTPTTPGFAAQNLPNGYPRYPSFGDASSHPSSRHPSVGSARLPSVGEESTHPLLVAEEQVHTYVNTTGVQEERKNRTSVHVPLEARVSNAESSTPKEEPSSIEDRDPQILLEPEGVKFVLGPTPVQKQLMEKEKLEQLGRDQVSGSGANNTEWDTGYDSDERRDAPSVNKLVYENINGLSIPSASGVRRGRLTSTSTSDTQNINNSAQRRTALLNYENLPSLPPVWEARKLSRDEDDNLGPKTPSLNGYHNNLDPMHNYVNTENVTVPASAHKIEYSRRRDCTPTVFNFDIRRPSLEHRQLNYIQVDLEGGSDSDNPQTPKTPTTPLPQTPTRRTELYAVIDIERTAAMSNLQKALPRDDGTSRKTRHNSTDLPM
The assay can be described thus: SIMPL ELISA, bait-IN/prey-CIC.

For assay [20], the target named is F44B9.8 (C. elegans prey, IC format) (C. elegans) (UniProt P34429). The assay can be described thus: SIMPL ELISA, C. elegans lysate, IN/IC; ratio of spliced signal to total signal.
Assay [21] addresses CASP9 (prey, CIC format) (human) (UniProt P55211). Kind of assay: SIMPL ELISA, bait-IN/prey-CIC.
Assay [22] has as its target T9, ARFIP2 (prey, CIC format) (human) (UniProt P53365).
T9 sequence (looked up): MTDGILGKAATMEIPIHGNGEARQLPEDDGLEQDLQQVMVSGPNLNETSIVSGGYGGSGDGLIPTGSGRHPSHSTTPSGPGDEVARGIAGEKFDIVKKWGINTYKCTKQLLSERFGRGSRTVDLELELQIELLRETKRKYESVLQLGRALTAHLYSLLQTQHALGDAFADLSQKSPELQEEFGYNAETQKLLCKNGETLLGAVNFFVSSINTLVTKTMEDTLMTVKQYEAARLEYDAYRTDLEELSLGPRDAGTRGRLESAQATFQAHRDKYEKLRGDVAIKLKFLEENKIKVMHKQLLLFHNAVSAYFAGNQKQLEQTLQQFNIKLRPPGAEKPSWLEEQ
The assay can be described thus: SIMPL ELISA, bait-IN/prey-CIC.

For “AKT1 (bait, IN format) (from UniProt P31749 1-480) (enzyme)”, the PLU mean amounted to 0.218 in assay [1], 0.111 in assay [2] and 0.486 in assay [3].

As to “CDK-1 (C. elegans bait, IN-V5/HA) (from UniProt P34556 1-332) (enzyme)”, in [4], the ELISA Value Replicate 1 amounted to 1.1 and the ELISA Value Replicate 2 turned out to be 0.8.

As to “LET-60 (C. elegans bait, IN-V5/HA) (from UniProt P22981 1-184)”, in assay [5], the ELISA Value Replicate 1 amounted to 1.2 and the ELISA Value Replicate 2 was 0.59. For the same substance, in [6], the ELISA Value Replicate 1 came to 0.79 and the ELISA Value Replicate 2 worked out at 0.7.

On to “LMNA (bait, IN format) (from UniProt P02545 1-664)”, for which the PLU mean in assay [7] was 0.224; in assay [8] it was 0.861; in assay [9], 1.18.

Regarding NPP-11 (C. elegans bait, IN-V5/HA), in assay [10], the ELISA Value Replicate 1 turned out to be 1.8 and the ELISA Value Replicate 2 was 0.92.

Regarding “NR3C1 (bait, IN format) (from UniProt P04150 1-777) (receptor)”, the results for the PLU mean in assay [11], in assay [12] and in assay [13] were 0.652, 0.183 and 0.63, respectively.

For “PDE4D (bait, IN format) (from UniProt Q08499 1-809) (enzyme)”, the PLU mean in [14] was found to be 0.639; in assay [15] it was 0.137.

As to “PDGFRB (bait, IN format) (from UniProt P09619 33-1106) (receptor)”, the PLU mean in [16] was 0.539; in assay [17] it was 0.143.

“RET (bait, IN format) (from UniProt P07949 29-1114) (receptor)”: the PLU mean came to 1.06 in [18] and 0.608 in assay [19].

Consider RFC-2 (C. elegans bait, IN-V5/HA), for which, in assay [20], the ELISA Value Replicate 1 was 0.66 and the ELISA Value Replicate 2 worked out at 0.88.

Consider “XIAP (bait, IN format) (from UniProt P98170 1-497)”, for which the PLU mean in [21] worked out at 0.811; in assay [22], 0.439.

(Values after patent publication US20220229068A1, “DETECTION OF PROTEIN TO PROTEIN INTERACTIONS” (THE GOVERNING COUNCIL OF THE UNIVERSITY OF TORONTO, priority 2019, published 2022).)
